What was measured:
[1] = target: native red deer GDF9 (red deer (endogenous in red deer oocytes)); test: cross-linking; oocyte lysates of sheep, red deer and pig; 2 mM BS3, room temperature, 30 min, reducing SDS-PAGE, beside non-reducing and reducing lanes without cross-linker; Western blot with Mab61A or Mab37A
[2] = target: recombinant pig BMP15 (pig); test: cross-linking; recombinant HEK-293 conditioned media (positive control lanes); 2 mM BS3, room temperature, 30 min; reducing SDS-PAGE; Western blot with Mab61A (BMP15) or Mab37A (GDF9)
[3] = target: recombinant pig GDF9 (pig) (UniProt Q6GUA6); test: as above
recombinant ovine GDF9 = target: T1, recombinant ovine GDF9 (sheep (ovine), UniProt O77681 319-453); test: SPR; ProteOn XPR36; biotinylated hBMPR2 captured (~200 RU) on a streptavidin-coated GLC chip; log2 serial dilutions of partially purified (dialysed, concentrated) 293H-secreted GDF9 or BMP15 as analytes; 25 °C, 100 µl/min; 10 mM HEPES, 500 mM NaCl, 3.4 mM EDTA, 0.005% Tween 20; association 120 s; analyte concentrations not known; details: one partner purified
T1 construct: also called recovGDF9; sheep GDF9; source: 293H-secreted media, dialysed and concentrated (partially purified)
T1 sequence (looked up): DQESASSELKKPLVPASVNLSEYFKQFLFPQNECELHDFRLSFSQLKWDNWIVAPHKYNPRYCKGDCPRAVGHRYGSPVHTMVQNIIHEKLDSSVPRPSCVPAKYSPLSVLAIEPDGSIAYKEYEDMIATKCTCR

## native red deer GDF9 (natural protein)
[1]
  stoichiometry N: 2

## recombinant pig BMP15 (ligand)
[2]
  stoichiometry N: 2

## recombinant pig GDF9 (from UniProt Q6GUA6 1-444) (ligand)
[3]
  stoichiometry N: 2

B1: recombinant human (h)BMPR2 ectodomain (receptor, UniProt Q13873 27-151, looked up)
chain: SQNQERLCAFKDPYQQDLGIGESRISHENGTILCSKGSTCYGLWEKSKGDINLVKQGCWSHIGDPQECHYEECVVTTTPPSIQNGTYRFCCCSTDLCNVNFTENFPPPDTTPLSPPHSFNRDETI
modifications: N-biotinylated using EZ-Link sulfo-NHS-LC-biotin (1:1.2 molar ratio)
notes: human BMPR2, extracellular domain, amino acids 27 to 151; captured on a streptavidin-coated sensor chip by its biotin; also called hBMPR2 ectodomain protein; Type 2 receptor; source: baculoviral infected Sf9 insect cells, purified
Recombinant ovine GDF9
  Kd: ~1 nM

— article PMC10725505, “Molecular forms of BMP15 and GDF9 in mammalian species that differ in litter size” (Scientific Reports, 2023)
